Source: US6312941

Legend:
[1] = target: wild-type murine JAK2 (expressed in COS cells from pRK5) (murine)
[2] = target: wild-type murine JAK2 (expressed in COS cells from pRK5) (murine); remark: listed apart in the source

Substance	tyrosine phosphorylation of JAK2 (αJAK2 immunoprecipitate, anti-PY blot, densitometry normalised to JAK2) [1]	tyrosyl phosphorylation of JAK2 (αMyc immunoprecipitate, anti-phosphotyrosine blot) [2]
Myc-tagged SH2-Bβn (truncated at amino acid 555, lacks the SH2 domain)	90%	–
HA-tagged SH2-Bβc (expressed in COS cells)	–	3 fold
